Experimental data taken from PMC2119555.
Several values for one entry are separate records, joined by “and”; a condition that tells them apart may be missing. Equal values may be shown once. One block for each binder: values may come before it.

Assays:
[1] = target: murine FGFR-1 (flg) expressed on CHO cells (murine) (UniProt P16092); assay: radioligand binding
[2] = target: murine FGFR-2 (bek) expressed on CHO cells (murine) (UniProt P21803); assay: radioligand binding

Kd [1]: 0.28 nM
fold more unlabeled competitor required than of K140 [1]: 5 fold
Kd [2]: 0.14 nM
B1: recombinant wild-type K-FGF (human K-FGF/HST, FGF-4) (ligand)
chain: APTAPNGTLEAELERRWESLVALSLARLPVAAQPKEAAVQSGAGDYLLGIKRLRRLYCNVGIGFHLQALPDGRIGGAHADTRDSLLELSPVERGVVSIFGVASRFFVAMSSKGKLYGSPFFTDECTFKEILLPNNYNAYESYKYPGMFIALSKNGKTKKGNRVSPTMKVTHFLPRL
modifications: 125I-labeled Bolton-Hunter reagent (where used as the labelled ligand)

Kd [1]: 0.09 nM
Kd [2]: 0.06 nM
fold affinity over K-FGF (competition) [2]: 2 fold
fold affinity over bFGF and K-FGF (competition against 125I-bFGF) [2]: 2 fold and 3 fold
B2: recombinant K140 (NH2-terminally truncated K-FGF, residues 67-206) (ligand)
chain: MAAVQSGAGDYLLGIKRLRRLYCNVGIGFHLQALPDGRIGGAHADTRDSLLELSPVERGVVSIFGVASRFFVAMSSKGKLYGSPFFTDECTFKEILLPNNYNAYESYKYPGMFIALSKNGKTKKGNRVSPTMKVTHFLPRL
modifications: 125I-labeled Bolton-Hunter reagent (where used as the labelled ligand)
